# Laboratory results taken from article PMC9192595, “Dynamic interaction of BRCA2 with telomeric G-quadruplexes underlies telomere replication homeostasis”.
# T1: POT1OB (human, UniProt Q9NUX5 10-278)
# T1 sequence: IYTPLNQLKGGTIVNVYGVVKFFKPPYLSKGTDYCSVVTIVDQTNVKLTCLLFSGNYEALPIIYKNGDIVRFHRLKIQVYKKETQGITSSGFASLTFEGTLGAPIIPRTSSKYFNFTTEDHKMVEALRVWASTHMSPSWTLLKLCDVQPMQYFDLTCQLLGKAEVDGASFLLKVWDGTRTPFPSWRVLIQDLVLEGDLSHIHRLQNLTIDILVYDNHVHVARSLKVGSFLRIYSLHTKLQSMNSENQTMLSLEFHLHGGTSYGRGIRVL
# T2: BRCA2OB (human, UniProt P51587 2665-3197)
# T2 sequence: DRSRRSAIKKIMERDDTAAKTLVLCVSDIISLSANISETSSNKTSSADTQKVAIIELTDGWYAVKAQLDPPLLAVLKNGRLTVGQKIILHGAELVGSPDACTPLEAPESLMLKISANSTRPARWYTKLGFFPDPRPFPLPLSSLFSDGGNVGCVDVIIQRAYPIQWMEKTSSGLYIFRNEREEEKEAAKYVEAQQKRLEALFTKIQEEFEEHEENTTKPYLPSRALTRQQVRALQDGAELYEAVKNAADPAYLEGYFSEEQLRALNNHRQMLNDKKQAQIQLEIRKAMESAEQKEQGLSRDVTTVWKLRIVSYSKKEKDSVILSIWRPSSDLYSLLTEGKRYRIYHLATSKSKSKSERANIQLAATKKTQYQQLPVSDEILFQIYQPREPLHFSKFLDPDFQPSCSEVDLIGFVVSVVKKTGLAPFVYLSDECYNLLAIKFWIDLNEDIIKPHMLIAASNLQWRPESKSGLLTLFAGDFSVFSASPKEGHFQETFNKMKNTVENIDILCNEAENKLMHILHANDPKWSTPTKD
# How the values were obtained:
# [1] = molecular target: T1, POT1OB; assay: EMSA; 100 mM KCl; EMSA: 10 nM probe, 50 mM Tris-HCl pH 7.5, 100 mM KCl, 2 mM b-ME, 10% glycerol, probe pre-incubated 37 C, gel 4 C (RAD51: +1 mM MgCl2, 2 mM ATP); smFRET: 50 mM Tris-HCl pH 7.9, 100 mM KCl, 20 mM NaCl, 1 mM DTT, 0.1 mg/ml BSA, 9% glycerol, 37 C; conditions: protein: recombinant, tags: N-MBP, C-6xHis, label: 5' 32P
# [2] = molecular target: T2, BRCA2OB; assay: EMSA; 100 mM KCl; rough estimate, max protein 1 uM; EMSA: 10 nM probe, 50 mM Tris-HCl pH 7.5, 100 mM KCl, 2 mM b-ME, 10% glycerol, probe pre-incubated 37 C, gel 4 C (RAD51: +1 mM MgCl2, 2 mM ATP); smFRET: 50 mM Tris-HCl pH 7.9, 100 mM KCl, 20 mM NaCl, 1 mM DTT, 0.1 mg/ml BSA, 9% glycerol, 37 C; conditions: protein: recombinant; tags: N-MBP, C-6xHis; label: 5' 32P; intramolecular G4 (dynamic)
# [3] = molecular target: T3, RAD51 (human, UniProt Q06609 1-339); assay: EMSA; 250 nM RAD51, 2 mM ATP, no BRCA2OB; EMSA: 10 nM probe, 50 mM Tris-HCl pH 7.5, 100 mM KCl, 2 mM b-ME, 10% glycerol, probe pre-incubated 37 C, gel 4 C (RAD51: +1 mM MgCl2, 2 mM ATP); smFRET: 50 mM Tris-HCl pH 7.9, 100 mM KCl, 20 mM NaCl, 1 mM DTT, 0.1 mg/ml BSA, 9% glycerol, 37 C; conditions: protein: commercial; label: 5' 32P; intramolecular G4 (dynamic)
# T3 sequence (Q06609 whole entry): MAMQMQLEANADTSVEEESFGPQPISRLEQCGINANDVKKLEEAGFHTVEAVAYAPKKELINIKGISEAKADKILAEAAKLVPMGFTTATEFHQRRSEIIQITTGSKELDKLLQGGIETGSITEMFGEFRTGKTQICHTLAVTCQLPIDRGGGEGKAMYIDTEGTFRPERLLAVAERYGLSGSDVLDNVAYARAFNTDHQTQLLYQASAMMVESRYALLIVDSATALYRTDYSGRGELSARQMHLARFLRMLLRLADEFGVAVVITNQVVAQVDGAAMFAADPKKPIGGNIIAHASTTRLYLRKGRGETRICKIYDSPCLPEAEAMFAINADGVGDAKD
# [4] = molecular target: T2, BRCA2OB; assay: EMSA; 100 mM KCl; EMSA: 10 nM probe, 50 mM Tris-HCl pH 7.5, 100 mM KCl, 2 mM b-ME, 10% glycerol, probe pre-incubated 37 C, gel 4 C (RAD51: +1 mM MgCl2, 2 mM ATP); smFRET: 50 mM Tris-HCl pH 7.9, 100 mM KCl, 20 mM NaCl, 1 mM DTT, 0.1 mg/ml BSA, 9% glycerol, 37 C; conditions: protein: recombinant; tags: N-MBP, C-6xHis; label: 5' 32P; intramolecular G4
# [5] = molecular target: T3, RAD51; assay: EMSA; ATP; facilitated by BRCA2OB, about constant with dose; EMSA: 10 nM probe, 50 mM Tris-HCl pH 7.5, 100 mM KCl, 2 mM b-ME, 10% glycerol, probe pre-incubated 37 C, gel 4 C (RAD51: +1 mM MgCl2, 2 mM ATP); smFRET: 50 mM Tris-HCl pH 7.9, 100 mM KCl, 20 mM NaCl, 1 mM DTT, 0.1 mg/ml BSA, 9% glycerol, 37 C; conditions: protein: commercial; label: 5' 32P; intramolecular G4
# [6] = molecular target: T2, BRCA2OB; assay: EMSA; 100 mM KCl; EMSA: 10 nM probe, 50 mM Tris-HCl pH 7.5, 100 mM KCl, 2 mM b-ME, 10% glycerol, probe pre-incubated 37 C, gel 4 C (RAD51: +1 mM MgCl2, 2 mM ATP); smFRET: 50 mM Tris-HCl pH 7.9, 100 mM KCl, 20 mM NaCl, 1 mM DTT, 0.1 mg/ml BSA, 9% glycerol, 37 C; conditions: protein: recombinant; tags: N-MBP, C-6xHis; label: 5' 32P; intramolecular G4; remark: listed apart in the source
# [7] = molecular target: T2, BRCA2OB; assay: as above; conditions: protein: recombinant; tags: N-MBP, C-6xHis; label: 5' 32P; intramolecular G4; remark: listed apart in the source
# [8] = molecular target: T2, BRCA2OB; assay: as above; conditions: protein: recombinant; tags: N-MBP, C-6xHis; label: 5' 32P; G-triplex / G3:G4
binder,measurement,setting,value
GGTTAGGGTTAGGGTTAGGGTTAGGGTTAG (structured_DNA) [TelG5],binding result,[1]; intramolecular G4 (dynamic),binds
same,Kd,[2],4400 nM
same,binding result,[3],binds
GGTTTGGGTTTGGGTTTGGGTTTGGGTTTG (structured_DNA) [TelG5TTT],binding result,[1]; intramolecular G4,no binding
same,Kd,[4],456 nM
same,binding result,[5],binds
same,binding signal,[6],~9 fold vs TelG5
GGTTTGGGTTGGGTTGGGTTGGGTTTG (structured_DNA) [TelG5TT],binding signal,[7],13 fold vs TelG5
GGTTAGGGTTAGGGTTAGTGTTAGGGTTAG (structured_DNA) [TelG5-G3],binding signal,[8],3 fold vs TelG5
